Data as given in PMC7205207, “Modeling and mitigation of high-concentration antibody viscosity through structure-based computer-aided protein design” (PLoS ONE, 2020).

Target: T1, human PDGF-BB (platelet derived growth factor B homodimer) (human, UniProt P01127)
T1 construct: Platelet derived growth factor B, human, homodimer, bought from PeproTech; the printed catalogue number may stand for 100-14B; source: bought: PeproTech, Catalog 100-148
Test: SPR; Biacore T200, off-rate screen; antibody captured (~70 to 100 RU) by anti-human IgG amine-coupled to a CM5 chip; human PDGF-BB injected at a single 2.5 nM for 170 s, dissociation 300 s; HBS-EP+ N (10 mM HEPES, 500 mM NaCl, 3 mM EDTA, 0.05% Tween20, pH 7.4); 25 C
Settings: both partners purified

T1 sequence (P01127 82-190): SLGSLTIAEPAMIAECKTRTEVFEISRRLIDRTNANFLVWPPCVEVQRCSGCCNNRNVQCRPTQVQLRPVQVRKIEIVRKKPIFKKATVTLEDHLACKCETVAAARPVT

B1: R1-002 (antibody, V domains shown)
VH: EVQLLQSGGGLVQPGGSLRLSCAASGFTFSSYAMSWVRQAPGKGLEWVSYISDDGSLKYYADSVKGRFTISRDNSKNTLYLQMNSLRAEDTAVYYCARHPYWYGGQLDLWGQGTLVTVSS
VL: SYELTQPPSVSVSPGQTASITCSGDSLGSYFVHWYQQKPGQSPVLVIYDDSNRPSGIPERFSGSNSGNTATLTISGTQAMDEADYYCSAFTHNSDVFGGGTKLTVL
notes: VL of AB-001 (AB-001_LC); only the variable regions are written; source: HEK293, transient, purified from conditioned medium (protein A, TMAE, HIC)
  koff: 0.00038 s⁻¹

B2: R1-018 (antibody, V domains shown)
VH: EVQLLESGGGLVQPGGSLRLSCAASGFTFSSYAMSWVRQAPGKGLEWVSYISDDGSLKYYADSVKGRFTISRDNSKNTLYLQMNSLRAEDTAVYYCARHPYWYGGRLDLWGQGTLVTVSS
VL: SYELTQPPSVSVSPGQRASITCSGDSLGSYFVHWYQQKPGQSPVLVIYDDSNRPSGIPERFSGSNSGNTATLTISGTQAMDEADYYCSAFTHNSDVFGGGTKLTVL
notes: only the variable regions are written; source: HEK293, transient, purified from conditioned medium (protein A, TMAE, HIC)
  koff: 0.000419 s⁻¹

B3: R1-017 (antibody, V domains shown)
VH: EVQLLESGGGLVKPGGSLRLSCAASGFTFSSYAMSWVRQAPGKGLEWVSYISDDGSLKYYADSVKGRFTISRDNSKNTLYLQMNSLRAEDTAVYYCARHPYWYGGQLDLWGQGTLVTVSS
VL: SYELTQPPSVSVSPGQRASITCSGDSLGSYFVHWYQQKPGQSPVLVIYDDSNRPSGIPERFSGSNSGNTATLTISGTQAMDEADYYCSAFTHNSDVFGGGTKLTVL
notes: as for B2
  koff: 0.000471 s⁻¹

B4: R1-009 (antibody, V domains shown)
VH: EVQLLESGGGLVQPGGSLRLSCAASGFTFSSYAMSWVRQAPGKGLEWVSYISDDGSLKYYADSVKGRFTISRDNSKNTLYLQMNSLRAEDTAVYYCAKHPYWYGGQLDLWGQGTLVTVSS
VL: SYELTQPPSVSVSPGQRASITCSGDSLGSYFVHWYQQKPGQSPVLVIYDDSNRPSGIPERFSGSNSGNTATLTISGTQAMDEADYYCSAFTHNSDVFGGGTKLTVL
notes: VH of AB-001 (AB-001_HC); only the variable regions are written; source: HEK293, transient, purified from conditioned medium (protein A, TMAE, HIC)
  koff: 0.000393 s⁻¹

B5: R2-008 (antibody, V domains shown)
VH: EVQLLQSGGGLVKPGGSLRLSCAASGFTFSSYAMSWVRQAPGKGLEWVSYISDDGSLKYYADSVKGRFTISRDNSKNTLYLQMNSLRAEDTAVYYCARHPYWYGGQLDLWGQGTLVTVSS
VL: SYVLTQPPSVSVAPGKTARITCSGDSLGSYFVHWYQQKPGQSPVLVIYDDSKRPSGIPERFSGSNKGNTATLTISGTQAMDEADYYCSAFTHNSDVFGGGTKLTVL
notes: as the VH of m20 (R2-001_HC); as the VL of m20 (R2-001_LC) with S67K (Kabat); only the variable regions are written; source: HEK293, transient, purified from conditioned medium (protein A, TMAE, HIC)
  koff: 0.000396 s⁻¹

B6: R2-009 (antibody, V domains shown)
VH: EVQLLQSGGGLVKPGGSLRLSCAASGFTFSSYAMSWVRQAPGKGLEWVSYISDDGSLKYYADSVKGRFTISRDNSKNTLYLQMNSLRAEDTAVYYCARHPYWYGGQLDLWGQGTLVTVSS
VL: SYVLTQPPSVSVAPGKTARITCSGDSLGSYFVHWYQQKPGQSPVLVIYDDSKRPSGIPERFSGSNSKNTATLTISGTQAMDEADYYCSAFTHNSDVFGGGTKLTVL
notes: as the VH of m20 (R2-001_HC); as the VL of m20 (R2-001_LC) with G68K (Kabat); only the variable regions are written; source: HEK293, transient, purified from conditioned medium (protein A, TMAE, HIC)
  koff: 0.000265 s⁻¹

B7: R1-010 (antibody, V domains shown)
VH: EVQLLESGGGLVQPGGSLRLSCAASGFTFSSYAMSWVRQAPGKGLEWVSYISDDGSLKYYADSVKGRFTISRDNSKNTLYLQMNSLRAEDTAVYYCAKHPYWYGGQLDLWGQGTLVTVSS
VL: SYELTQPPSVSVSPGQTASITCSGDSLGSYFVHWYQQKPGQSPVLVIYDDSKRPSGIPERFSGSNSGNTATLTISGTQAMDEADYYCSAFTHNSDVFGGGTKLTVL
notes: as for B4
  koff: 0.000372 s⁻¹

B8: R1-008 (antibody, V domains shown)
VH: EVQLLESGGGLVQPGGSLRLSCAASGFTFSSYAMSWVRQAPGKGLEWVSYISDDGSLKYYADSVKGRFTISRDNSKNTLYLQMNSLRAEDTAVYYCAKHPYWYGGQLDLWGQGTLVTVSS
VL: SYVLTQPPSVSVSPGQTASITCSGDSLGSYFVHWYQQKPGQSPVLVIYDDSNRPSGIPERFSGSNSGNTATLTISGTQAMDEADYYCSAFTHNSDVFGGGTKLTVL
notes: VH of AB-001 (AB-001_HC); Kabat position; only the variable regions are written; source: HEK293, transient, purified from conditioned medium (protein A, TMAE, HIC)
  koff: 0.000533 s⁻¹

B9: R2-007 (antibody, V domains shown)
VH: EVQLLQSGGGLVKPGGSLRLSCAASGFTFSSYAMSWVRQAPGKGLEWVSYISDDGSLKYYADSVKGRFTISRDNSKNTLYLQMNSLRAEDTAVYYCARHPYWYGGQLDLWGQGTLVTVSS
VL: SYVLTQPPSVSVAPGKTARITCSGDSLGSYFVHWYQQKPGQSPVLVIYDDSKRPSGIPERFSGKNSGNTATLTISGTQAMDEADYYCSAFTHNSDVFGGGTKLTVL
notes: as the VH of m20 (R2-001_HC); as the VL of m20 (R2-001_LC) with S65K (Kabat); only the variable regions are written; source: HEK293, transient, purified from conditioned medium (protein A, TMAE, HIC)
  koff: 0.000401 s⁻¹

B10: R1-011 (antibody, V domains shown)
VH: EVQLLESGGGLVQPGGSLRLSCAASGFTFSSYAMSWVRQAPGKGLEWVSYISDDGSLKYYADSVKGRFTISRDNSKNTLYLQMNSLRAEDTAVYYCAKHPYWYGGQLDLWGQGTLVTVSS
VL: SYELTQPPSVSVSPGQTASITCSGDSLGSYFVHWYQQKPGQSPVLVIYDDSNRPSGIPERFSGSNSGNTATLTISGTQAMDEADYYCSAFTHNSNVFGGGTKLTVL
notes: as for B4
  koff: 0.00086 s⁻¹
